A protein production outcome set (Wang et al. 2014)

Assay: label from the status in PepcDB records

Sequence | protein production
MGDALSLLQQADRLHRQLLRTGPAQAPCWEPPVDMIETESAVLIYVALPGVAAGDVAVRFDPDGISISGVRPLPALRNARIHGLEIPYGRFQRRIRLPLHALEPEAPTLADGCLTLTLKKLREAPLEHHHHHH | not failed
MGDFDPNKPVVISEFSPKEGGLGTRMLLYGENFGSDISKIKVTIGGQDSKVVGAKGKSLYCVVPAKAYDGDIKLSILNDEGEEIANTEANEKFVYQKKMLVTTFLGTMYDGNTKYDLKDGPFDDCGGFGGAVWLSFDPKNHNHLYLVGEQHPTRLIDFEKEYVSTVYSGLSKVRTICWTHEADSMIITNDQNNNDRPNNYILTRESGFKVITELTKGQNCNGAETHPINGELYFNSWNAGQVFRYDFTTQETTPLFTIQDSGWEFHIQFHPSGNYAYIVVVNQHYILRSDYDWKTKRLTTPYIVCGQQGAKDWVDGVGKKARMHAPRQGTFVKNPAYKGSSDEYDFYFCDRENHCIRILTPQGRVTTFAGRGSNGTSGYNDGDLRQEARFNHPEGIVYDEERECFFIGDRENRRIRKIGLEHHHHHH | failed
MGDMIFGILTWLPGLILAITLHEAAHGYVASALGDQTARLLGRVTLNPIRHVDPFGTLVLPGLLFLVGAPFLFGWAKPVPVDYRNLRHPKRDMAWVALAGPGMNIFLAVVSAAALHGALLLPDPAADWLITTLQKSVLINCVLAVFNMIPVPPLDGGRVLVGILPMRAAVVVARMERVGMLALIGVIFLLPLALSQFGVDFDPFSRIIGPVVRALLGAVYTTAGIPLF | failed
MGDRIAVQAEPTPAKLRGAASGDLVMRKVCMQQWRPTAPRGEYVSTEWSAGYVTDVNYTFGYYGELNPLRCRLPLLTVGRHAPKIENACELGFGQGLSVSIHAAAQPGINWYGTDFNPSQAAFAAEMVRLSGAEAKLYDEAFAEFCNRKDLPDFDFIGLHGIWTWISDQNRHVLVDFIRRKLRPGGVLYISYNTLPGWSSSAPIRHLMKRHADVMGAPGQGVIGQTDAALNFIDQFLALDPLYAKVNPGAVERLKQVKAQDRKYLAHEYMNRDWHPMYFADVENWLGDAKVGFACSAHVLDNLYDLNMTPQQTEFMRDVSDVSLRETIRDFCMNQQFRRDYWVRGVRALIGHEQVAAMREERVVMTVAQADLPTKVRGVIGEATLNDDVYQPLFEILLDHKPHSVLELETHLASKSLHFGQLSSALTILLGLGVITTAAAAQDVSKAKARTLALNKTIARRSLSVGDIAYFASPITGGGITASRFAQLFWLSRQNGGKTAEDWASFAYQVLQGQGQAIIKDGATLQGEDNLTELRAQATHWGAHVLPIWNALGV | failed
MGEKKGLSFFEKYLSLWVALCIVLGILIGKFMPSLPRTLSKLTIANVNMAIAVLIWAMIYPMMVKVDFSAIKRVHKGQMLKGLIVTWVTNWLIKPFSMFLISSFFIGTIFSMKLGLIDPSLAKEYIAGAILLGAAPCTAMVFVWSYLADGDPLYTLVQVATNDIIILFAFAPIVGFLMGLNKVPVPYDTLLLSVVLFVVIPLSAGYLSRRYILKTKGHKWFEQEFLPKLSTISIVGLLLTLILLFSFQGEIILENPLHIALIAIPLTIQTYFIFAIAYGWAWIWKLPHKVAAPASFIGASNFFELAVAVAIALFGLDSGAALATVVGVLEEVPIMLSLVWIANKTRHFFTAKFETGSGSKAWALLRNSLPYYPYCPNHEDIRKDTYKQMNLYPVLFFLG | failed
MGEMTLAFIEEQYKELDNLNNKENPAVLTRNTATGELLVRKIIPISFAPVLEELKKLSSNYLPKIEVMIPNGSELIVYEEYINGKNLADLMKVNAPFDADEVTGLMLMLSDALTELHTNAIIHRDIKPSNIMISSDGVLKLIDFDASRVFEVGKNQDTVNLGTIGYAAPEQYGYSQTDARSDIYSIGVLMLELLRGKNNLPDKETATSLEKIAMQAASFDPEQRFQTIQEFRTAIKNDSLGPTFVSELTNLSDFATIEDSADEINWATSTDEYEKDFIPWYKHIPGFRTGHTWKMVVAVLGYIFMAFGLFTPPTEGVKMNNIENFFANFFLIFPAFIIFTNLCGIWSKLPLLKSSSKGTRKVGIVVYIFVCIMIYGIYTEIFS | failed
